Experimental data as given in paper PMC7112951.

Legend:
[1] = molecular target: [RKH2-AAA]2 single-chain ClpX^ΔN pseudohexamer (Escherichia coli) (UniProt P0A6H1)
[2] = molecular target: E. coli ClpP (residues 1-193 of mature ClpP), tag removed, used for cryo-EM (Escherichia coli); test: cryo-EM structure; ClpX^∆N pseudohexamer 4 µM and ClpP14 1.8 µM (2 µM in the results) in EM buffer (20 mM HEPES, pH 7.5, 100 mM KCl, 25 mM MgCl2, 5 mM ATPγS), 5 min at 25°C before vitrification; doubly capped complexes analysed

Row | KM for steady-state degradation of ^CP7GFP-ssrA, against the parent pseudohexamer [1] [fold] | stoichiometry N [2] | Substance
1 | 3 | – | ^cp7GFP-ssrA
2 | – | 14 | E. coli ClpP (residues 1-193 of mature ClpP), tag removed, used for cryo-EM (enzyme)
